Reference: article PMC10986958 (PLOS Pathogens, 2024)

Columns and labels:
Assay in all cases: ITC
Details in all cases: both partners purified
[1] = target: T1, GABARAP (residues 1-117 of human GABARAP) (human, UniProt O95166 1-117)
[2] = target: LC3A (residues 1-121 of human LC3A) (human, UniProt Q9H492 1-121)
[3] = target: T2, LC3B (residues 1-125 of human LC3B) (human, UniProt Q9GZQ8 1-125)
[4] = target: T3, GABARAPL1 (residues 1-117 of human GABARAPL1) (human, UniProt Q9H0R8 1-117)
T3 construct: also called GABARPL1
T3 sequence (Q9H0R8 whole entry, the tested form may be a part): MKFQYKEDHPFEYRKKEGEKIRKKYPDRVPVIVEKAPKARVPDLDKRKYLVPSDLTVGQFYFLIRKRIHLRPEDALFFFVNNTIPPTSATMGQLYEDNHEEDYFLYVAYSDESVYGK

[5] = target: T2, LC3B (residues 1-125 of human LC3B); remark: listed apart in the source
[6] = target: T3, GABARAPL1 (residues 1-117 of human …); remark: listed apart in the source
[7] = target: T1, GABARAP (residues 1-117 of human …); remark: listed apart in the source

T1 sequence (O95166 whole entry, the tested form may be a part): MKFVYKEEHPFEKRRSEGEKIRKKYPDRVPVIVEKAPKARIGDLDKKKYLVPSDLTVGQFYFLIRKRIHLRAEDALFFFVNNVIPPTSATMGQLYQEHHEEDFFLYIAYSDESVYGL

B1: NSs1 (residues 2-16 of RVFV NSs) (peptide)
peptide: DYFPVISVDLQSGRR
- Kd [1]: > 100 µM
- Kd [2]: > 100 µM

B2: NSs2 (residues 53-72 of RVFV NSs) (peptide)
peptide: RLRFSDFYNVGEFPYRVGLG
- Kd [1]: > 100 µM
- Kd [2]: > 100 µM

B3: NSs4 (residues 247-265 of RVFV NSs) (peptide)
peptide: DVEMESEEESDDDGFVEVD
- stoichiometry N [3]: 1
- stoichiometry N [4]: 1
- Kd [5]: 0.6 µM
- Kd [6]: 0.49 µM

B4: NSs3 (residues 234-255 of RVFV NSs) (peptide)
peptide: GRNNWIPVIPPIPDVEMESEEE
- stoichiometry N [1]: 1
- Kd [2]: > 100 µM
- Kd [7]: 16 µM
